Assay results reported in patent publication US20220226454A1 (KEYSTONE BIO, published 2022).

Key:
[1] = target: T1, recombinant GST-gingipain rGP-1 fusion protein; assay: ELISA, wells coated with rGP-1 and probed with varying concentrations of KB001
T1 construct: also called GST-Gp; GST-Gingipain recombinant protein

[2] = target: whole bacterial cells of P. gingivalis (Porphyromonas gingivalis)

B1: KB-001 mouse monoclonal antibody (antibody, V domains shown)
VH: EVQLKQSGPGLVAPSQSLSITCTVSGFSLSIYSVHWVRQPPGKGLEWLGMIWGGGSSDYNSALKSRLSISKDNSKSQVFLKMNSLQTDDTAMYYCARNGNFYAMDYWGQGTSVTVSS
VL: QIVLTQSPAIMSASLGERVTMTCTASSSVSSSFLHWYQQKPGSSPQLWIYSTSNLASGVPARFSGSGSGTSYSLTISSMEAEDAATYYCHQYHHSPYIYTFGGGTKLEIKR
notes: also called Pg/gingipain antibody
For B1, the binding result [1] was “binds” and the Kd [2] was 11.4 nM.
